Article PMC9352680, “A comprehensive thermodynamic model for RNA binding by the Saccharomyces cerevisiae Pumilio protein PUF4”

Target: T1, PUF4 RNA-binding domain (Saccharomyces cerevisiae, UniProt P25339 537-888)
T1 sequence: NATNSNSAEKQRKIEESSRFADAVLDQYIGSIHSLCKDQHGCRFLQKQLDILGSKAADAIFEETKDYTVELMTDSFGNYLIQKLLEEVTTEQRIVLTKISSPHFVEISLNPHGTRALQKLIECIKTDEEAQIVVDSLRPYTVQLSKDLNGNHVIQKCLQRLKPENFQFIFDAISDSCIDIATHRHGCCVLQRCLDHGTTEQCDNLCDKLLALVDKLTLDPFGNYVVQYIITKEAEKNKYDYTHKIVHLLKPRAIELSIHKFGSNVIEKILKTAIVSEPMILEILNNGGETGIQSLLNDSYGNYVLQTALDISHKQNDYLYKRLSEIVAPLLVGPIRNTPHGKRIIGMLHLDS
Test: Mg; RNA-MaP; 20 mM Na-HEPES pH 7.4, 30 mM KOAc, 0.75 mM MgCl2, 0.1% Tween-20, 5% glycerol, 0.1 mg/mL BSA, 2 mM DTT; 25 C; 0.0125-409.6 nM protein
Conditions: tags: N-His6-TEV cleaved; C-SNAP kept, Cy3B-labelled; label: tethered on chip by stalled RNA polymerase

Q: For ACAAACUAACACUAUAUUACAAAC (ssRNA) [Id_ii_S3_P3E.4_K3.3_C3.2_[C-2T]_[T-1A]_H3.3_A3.1_F3.1_T3.2_[A10T]], which Kd is on record?
A: 2240 nM

Q: ACAAACCUUAUAUAUAUUACAAAC (ssRNA) [Id_ii_S3_P3E.3_K3.2_C3.2_H3.2_A3.1_F3.1_T3.2_[A10T]] was tested. Which Kd did it give?
A: 28.1 nM

Q: Which Kd does the source give for ACAAACGGACACUAUACUACAAAC (ssRNA) [Id_ii_S3_P3E.4_K3.3_C3.2_[C-2G]_[T-1G]_H3.3_A3.1_F3.1_T3.2_[T9C]_[A10T]] here?
A: 2160 nM

Q: Which Kd does the source give for ACAAACCCUAUAUAUAUGACAAAC (ssRNA) [Id_ii_S3_P3E.3_K3.2_C3.2_[T-1C]_H3.2_A3.1_F3.1_T3.2_[A10G]] here?
A: 769 nM

Q: For ACAAACGAACACUAUAAUACAAAC (ssRNA) [Id_ii_S3_P3E.4_K3.3_C3.2_[C-2G]_[T-1A]_H3.3_A3.1_F3.1_T3.2_[T9A]_[A10T]], which Kd is on record?
A: > 2300 nM

Q: For ACAAACAUUAUAUAUAUUACAAAC (ssRNA) [Id_ii_S3_P3E.3_K3.2_C3.2_[C-2A]_H3.2_A3.1_F3.1_T3.2_[A10T]], which Kd is on record?
A: 33.2 nM

Q: ACAAACUCACACUAUAGAACAAAC (ssRNA) [Id_ii_S3_P3E.4_K3.3_C3.2_[C-2T]_[T-1C]_H3.3_A3.1_F3.1_T3.2_[T9G]] was tested. Which Kd did it give?
A: > 2300 nM

Q: ACAAACCAUAUAUAUAAGACAAAC (ssRNA) [Id_ii_S3_P3E.3_K3.2_C3.2_[T-1A]_H3.2_A3.1_F3.1_T3.2_[T9A]_[A10G]] was tested. Which Kd did it give?
A: 546 nM

Q: How did the Kd turn out when ACAAACGAACACUAUAACACAAAC (ssRNA) [Id_ii_S3_P3E.4_K3.3_C3.2_[C-2G]_[T-1A]_H3.3_A3.1_F3.1_T3.2_[T9A]_[A10C]] was run?
A: > 2300 nM

Q: How did the Kd turn out when ACAAACAUUAUAUAUAAUACAAAC (ssRNA) [Id_ii_S3_P3E.3_K3.2_C3.2_[C-2A]_H3.2_A3.1_F3.1_T3.2_[T9A]_[A10T]] was run?
A: 381 nM

Q: How did the Kd turn out when ACAAACCCUAUAUAUACUACAAAC (ssRNA) [Id_ii_S3_P3E.3_K3.2_C3.2_[T-1C]_H3.2_A3.1_F3.1_T3.2_[T9C]_[A10T]] was run?
A: 45.5 nM

Q: ACAAACUGACACUAUACUACAAAC (ssRNA) [Id_ii_S3_P3E.4_K3.3_C3.2_[C-2T]_[T-1G]_H3.3_A3.1_F3.1_T3.2_[T9C]_[A10T]] was tested. Which Kd did it give?
A: > 2300 nM

Q: For UCUCUUUGUAUUUUAAUCUCUU (ssRNA) [Ib_S1_P5E.1_K5.1_C5.1_H5.1_A5.1_[A7T]_F5.1_[T9A]_T5.1], which Kd is on record?
A: 3.42 nM

Q: For ACAAACUAACACUAUAUAACAAAC (ssRNA) [Id_ii_S3_P3E.4_K3.3_C3.2_[C-2T]_[T-1A]_H3.3_A3.1_F3.1_T3.2], which Kd is on record?
A: > 2300 nM

Q: ACAAACGUACACUAUACCACAAAC (ssRNA) [Id_ii_S3_P3E.4_K3.3_C3.2_[C-2G]_H3.3_A3.1_F3.1_T3.2_[T9C]_[A10C]] was tested. Which Kd did it give?
A: 105 nM

Q: For UCUCUUUGUAAUAUUGUCUCUU (ssRNA) [Ic_S1_P5E.1_K5.1_C5.1_H5.1_A5.1_[T5A]_F5.1_[A10G]_T5.1], which Kd is on record?
A: 14.9 nM

Q: Which Kd does the source give for ACAAACGCACACUAUAAUACAAAC (ssRNA) [Id_ii_S3_P3E.4_K3.3_C3.2_[C-2G]_[T-1C]_H3.3_A3.1_F3.1_T3.2_[T9A]_[A10T]] here?
A: > 2300 nM

Q: UCUCUUUGUAAUAUUCUCUCUU (ssRNA) [Ib_S1_P5E.1_K5.1_C5.1_H5.1_A5.1_[T5A]_F5.1_[A10C]_T5.1] was tested. Which Kd did it give?
A: 21.6 nM

Q: For ACAAACUGACACUAUAGAACAAAC (ssRNA) [Id_ii_S3_P3E.4_K3.3_C3.2_[C-2T]_[T-1G]_H3.3_A3.1_F3.1_T3.2_[T9G]], which Kd is on record?
A: 1880 nM

Q: ACAAACAUUAUAUAUAAAACAAAC (ssRNA) [Id_ii_S3_P3E.3_K3.2_C3.2_[C-2A]_H3.2_A3.1_F3.1_T3.2_[T9A]] was tested. Which Kd did it give?
A: 868 nM

Q: Which Kd does the source give for ACAAACAAUAUAUAUAAUACAAAC (ssRNA) [Id_ii_S3_P3E.3_K3.2_C3.2_[C-2A]_[T-1A]_H3.2_A3.1_F3.1_T3.2_[T9A]_[A10T]] here?
A: 98.1 nM

Q: How did the Kd turn out when ACAAACCAUAUAUAUAACACAAAC (ssRNA) [Id_ii_S3_P3E.3_K3.2_C3.2_[T-1A]_H3.2_A3.1_F3.1_T3.2_[T9A]_[A10C]] was run?
A: 724 nM

Q: ACAAACAUUAUAUAUAGUACAAAC (ssRNA) [Id_ii_S3_P3E.3_K3.2_C3.2_[C-2A]_H3.2_A3.1_F3.1_T3.2_[T9G]_[A10T]] was tested. Which Kd did it give?
A: 67.5 nM

Q: How did the Kd turn out when ACAAACCGUAUAUAUAGAACAAAC (ssRNA) [Id_ii_S3_P3E.3_K3.2_C3.2_[T-1G]_H3.2_A3.1_F3.1_T3.2_[T9G]] was run?
A: 366 nM

Q: With ACAAACUGACACUAUACCACAAAC (ssRNA) [Id_ii_S3_P3E.4_K3.3_C3.2_[C-2T]_[T-1G]_H3.3_A3.1_F3.1_T3.2_[T9C]_[A10C]] as the binder, how does the Kd read?
A: > 2300 nM

Q: Which Kd does the source give for ACAAACGUACACUAUAUCACAAAC (ssRNA) [Id_ii_S3_P3E.4_K3.3_C3.2_[C-2G]_H3.3_A3.1_F3.1_T3.2_[A10C]] here?
A: 51 nM

Q: For ACAAACCAUAUAUAUAAAACAAAC (ssRNA) [Id_ii_S3_P3E.3_K3.2_C3.2_[T-1A]_H3.2_A3.1_F3.1_T3.2_[T9A]], which Kd is on record?
A: 1420 nM

Q: How did the Kd turn out when ACAAACAUUAUAUAUAUCACAAAC (ssRNA) [Id_ii_S3_P3E.3_K3.2_C3.2_[C-2A]_H3.2_A3.1_F3.1_T3.2_[A10C]] was run?
A: 450 nM

Q: With ACAAACGAACACUAUACCACAAAC (ssRNA) [Id_ii_S3_P3E.4_K3.3_C3.2_[C-2G]_[T-1A]_H3.3_A3.1_F3.1_T3.2_[T9C]_[A10C]] as the binder, how does the Kd read?
A: > 2300 nM

Q: With ACAAACCCUAUAUAUAGUACAAAC (ssRNA) [Id_ii_S3_P3E.3_K3.2_C3.2_[T-1C]_H3.2_A3.1_F3.1_T3.2_[T9G]_[A10T]] as the binder, how does the Kd read?
A: 392 nM

Q: With ACAAACGGACACUAUAAAACAAAC (ssRNA) [Id_ii_S3_P3E.4_K3.3_C3.2_[C-2G]_[T-1G]_H3.3_A3.1_F3.1_T3.2_[T9A]] as the binder, how does the Kd read?
A: > 2300 nM
